# Source: IntAct's records for PubMed 29892012
# B1: Coiled-coil alpha-helical rod protein 1 (Homo sapiens), Q8TD31 (parent)
# chain: MFPPSGSTGLIPPSHFQARPLSTLPRMAPTWLSDIPLVQPPGHQDVSERRLDTQRPQVTMWERDVSSDRQEPGRRGRSWGLEGSQALSQQAEVIVRQLQELRRLEEEVRLLRETSLQQKMRLEAQAMELEALARAEKAGRAEAEGLRAALAGAEVVRKNLEEGSQRELEEVQRLHQEQLSSLTQAHEEALSSLTSKAEGLEKSLSSLETRRAGEAKELAEAQREAELLRKQLSKTQEDLEAQVTLVENLRKYVGEQVPSEVHSQTWELERQKLLETMQHLQEDRDSLHATAELLQVRVQSLTHILALQEEELTRKVQPSDSLEPEFTRKCQSLLNRWREKVFALMVQLKAQELEHSDSVKQLKGQVASLQEKVTSQSQEQAILQRSLQDKAAEVEVERMGAKGLQLELSRAQEARRRWQQQTASAEEQLRLVVNAVSSSQIWLETTMAKVEGAAAQLPSLNNRLSYAVRKVHTIRGLIARKLALAQLRQESCPLPPPVTDVSLELQQLREERNRLDAELQLSARLIQQEVGRAREQGEAERQQLSKVAQQLEQELQQTQESLASLGLQLEVARQGQQESTEEAASLRQELTQQQELYGQALQEKVAEVETRLREQLSDTERRLNEARREHAKAVVSLRQIQRRAAQEKERSQELRRLQEEARKEEGQRLARRLQELERDKNLMLATLQQEGLLSRYKQQRLLTVLPSLLDKKKSVVSSPRPPECSASAPVAAAVPTRESIKGSLSVLLDDLQDLSEAISKEEAVCQGDNLDRCSSSNPQMSS
# Variants of: B1
# Conditions: with nutm1_human NUTM1, Q86Y26
row,Variant,effect of a mutation on the interaction
1,W337R,disrupting interaction strength

# Variants of: B1
# Conditions: with tekt1_human TEKT1, Q969V4
# Sequence of tekt1_human TEKT1, Q969V4 (Q969V4 whole entry): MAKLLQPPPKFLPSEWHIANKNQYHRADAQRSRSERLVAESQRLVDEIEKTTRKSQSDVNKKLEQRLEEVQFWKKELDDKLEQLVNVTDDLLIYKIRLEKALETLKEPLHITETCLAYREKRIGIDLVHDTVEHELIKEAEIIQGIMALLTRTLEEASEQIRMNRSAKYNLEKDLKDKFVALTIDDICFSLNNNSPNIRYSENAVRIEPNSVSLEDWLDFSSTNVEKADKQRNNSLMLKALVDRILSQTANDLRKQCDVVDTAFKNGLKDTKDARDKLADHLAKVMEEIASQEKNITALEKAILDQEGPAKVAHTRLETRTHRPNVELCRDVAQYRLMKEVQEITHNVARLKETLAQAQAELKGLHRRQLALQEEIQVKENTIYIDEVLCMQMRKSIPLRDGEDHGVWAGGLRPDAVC
row,Variant,effect of a mutation on the interaction
1,W337R,disrupting interaction strength

# Variants of: B1
# Conditions: with amol2_human AMOTL2, Q9Y2J4
# Sequence of amol2_human AMOTL2, Q9Y2J4 (Q9Y2J4 whole entry): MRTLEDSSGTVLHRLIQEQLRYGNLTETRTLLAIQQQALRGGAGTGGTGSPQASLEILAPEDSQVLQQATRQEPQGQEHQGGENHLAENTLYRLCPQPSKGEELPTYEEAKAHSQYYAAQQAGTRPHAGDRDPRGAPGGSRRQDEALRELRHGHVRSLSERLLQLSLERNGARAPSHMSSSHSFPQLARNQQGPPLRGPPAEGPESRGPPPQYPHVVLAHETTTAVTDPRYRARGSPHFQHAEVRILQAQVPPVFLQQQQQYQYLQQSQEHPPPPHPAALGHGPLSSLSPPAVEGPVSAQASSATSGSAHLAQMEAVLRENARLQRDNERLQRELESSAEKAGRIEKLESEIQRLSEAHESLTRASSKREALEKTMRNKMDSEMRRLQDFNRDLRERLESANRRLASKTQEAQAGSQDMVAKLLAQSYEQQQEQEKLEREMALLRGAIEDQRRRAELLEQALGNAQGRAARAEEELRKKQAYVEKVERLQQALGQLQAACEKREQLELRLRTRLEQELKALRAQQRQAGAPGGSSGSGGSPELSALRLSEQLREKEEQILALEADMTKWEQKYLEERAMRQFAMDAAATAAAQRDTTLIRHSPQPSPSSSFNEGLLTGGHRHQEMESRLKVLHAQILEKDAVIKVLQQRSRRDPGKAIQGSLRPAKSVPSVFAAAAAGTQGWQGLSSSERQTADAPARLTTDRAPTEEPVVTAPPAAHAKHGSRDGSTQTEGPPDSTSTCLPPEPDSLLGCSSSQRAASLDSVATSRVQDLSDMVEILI
row,Variant,effect of a mutation on the interaction
1,W337R,disrupting interaction strength

# Variants of: B1
# Conditions: with k1h1_human KRT31, Q15323
row,Variant,effect of a mutation on the interaction
1,W337R,with no effect

# Variants of: B1
# Conditions: with abi2_human ABI2, Q9NYB9
row,Variant,effect of a mutation on the interaction
1,W337R,disrupting interaction strength

# Variants of: B1
# Conditions: with txlnb_human TXLNB
row,Variant,effect of a mutation on the interaction
1,W337R,disrupting interaction strength

# Variants of: B1
# Conditions: with ndc80_human NDC80, O14777
# Sequence of ndc80_human NDC80, O14777 (O14777 whole entry): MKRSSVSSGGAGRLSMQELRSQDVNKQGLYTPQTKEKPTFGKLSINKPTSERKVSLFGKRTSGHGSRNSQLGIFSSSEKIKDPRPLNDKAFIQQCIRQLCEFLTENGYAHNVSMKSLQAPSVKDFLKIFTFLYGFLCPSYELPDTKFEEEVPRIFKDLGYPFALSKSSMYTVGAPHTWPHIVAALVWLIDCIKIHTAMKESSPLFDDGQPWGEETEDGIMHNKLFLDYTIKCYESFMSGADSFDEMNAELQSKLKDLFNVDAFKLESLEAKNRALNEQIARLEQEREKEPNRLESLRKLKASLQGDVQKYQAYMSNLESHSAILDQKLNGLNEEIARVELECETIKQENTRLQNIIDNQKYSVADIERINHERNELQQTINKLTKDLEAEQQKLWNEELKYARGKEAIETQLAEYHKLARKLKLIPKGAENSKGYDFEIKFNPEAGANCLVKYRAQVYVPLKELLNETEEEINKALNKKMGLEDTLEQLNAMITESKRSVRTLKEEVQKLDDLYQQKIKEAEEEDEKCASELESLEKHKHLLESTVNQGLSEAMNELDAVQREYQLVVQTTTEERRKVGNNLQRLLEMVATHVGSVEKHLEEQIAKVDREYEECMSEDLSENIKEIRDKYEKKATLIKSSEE
row,Variant,effect of a mutation on the interaction
1,W337R,disrupting interaction strength

# Variants of: B1
# Conditions: with tpm3_human TPM3, P06753
# Sequence of tpm3_human TPM3, P06753 (P06753 whole entry): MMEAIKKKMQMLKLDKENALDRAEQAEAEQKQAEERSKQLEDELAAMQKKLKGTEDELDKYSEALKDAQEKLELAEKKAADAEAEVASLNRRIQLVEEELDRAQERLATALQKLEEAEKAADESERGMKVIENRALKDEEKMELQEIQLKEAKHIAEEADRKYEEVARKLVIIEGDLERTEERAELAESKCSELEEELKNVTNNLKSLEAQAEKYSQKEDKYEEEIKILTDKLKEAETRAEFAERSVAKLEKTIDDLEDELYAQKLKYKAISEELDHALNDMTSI
row,Variant,effect of a mutation on the interaction
1,W337R,disrupting interaction strength

# Variants of: B1
# Conditions: with KRT15, P19012
# Sequence of KRT15, P19012 (P19012 whole entry): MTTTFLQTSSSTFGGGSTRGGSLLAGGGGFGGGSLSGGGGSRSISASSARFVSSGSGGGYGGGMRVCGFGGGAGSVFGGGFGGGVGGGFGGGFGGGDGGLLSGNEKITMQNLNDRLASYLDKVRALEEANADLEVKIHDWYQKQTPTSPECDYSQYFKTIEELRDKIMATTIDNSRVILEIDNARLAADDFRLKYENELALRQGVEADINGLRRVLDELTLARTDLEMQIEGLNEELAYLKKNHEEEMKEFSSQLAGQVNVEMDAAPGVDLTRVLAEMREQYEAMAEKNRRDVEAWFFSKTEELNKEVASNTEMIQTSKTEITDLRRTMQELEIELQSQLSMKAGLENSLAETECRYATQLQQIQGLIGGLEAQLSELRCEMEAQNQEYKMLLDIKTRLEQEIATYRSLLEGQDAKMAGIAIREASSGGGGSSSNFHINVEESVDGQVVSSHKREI
row,Variant,effect of a mutation on the interaction
1,W337R,with no effect

# Variants of: B1
# Conditions: with atg5_human ATG5, Q9H1Y0
# Sequence of atg5_human ATG5, Q9H1Y0 (Q9H1Y0 whole entry): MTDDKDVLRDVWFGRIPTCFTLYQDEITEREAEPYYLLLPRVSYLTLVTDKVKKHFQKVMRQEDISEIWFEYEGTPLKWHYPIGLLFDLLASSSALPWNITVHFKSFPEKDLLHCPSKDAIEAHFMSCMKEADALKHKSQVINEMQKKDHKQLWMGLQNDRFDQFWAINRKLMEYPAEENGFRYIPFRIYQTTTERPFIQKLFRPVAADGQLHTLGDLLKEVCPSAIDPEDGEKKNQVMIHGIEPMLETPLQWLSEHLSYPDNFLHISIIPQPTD
row,Variant,effect of a mutation on the interaction
1,W337R,disrupting interaction strength

# Variants of: B1
# Conditions: with cc136_human CCDC136, Q96JN2
row,Variant,effect of a mutation on the interaction
1,W337R,with no effect

# Variants of: B1
# Conditions: with nup62_human NUP62, P37198
# Sequence of nup62_human NUP62, P37198 (P37198 whole entry): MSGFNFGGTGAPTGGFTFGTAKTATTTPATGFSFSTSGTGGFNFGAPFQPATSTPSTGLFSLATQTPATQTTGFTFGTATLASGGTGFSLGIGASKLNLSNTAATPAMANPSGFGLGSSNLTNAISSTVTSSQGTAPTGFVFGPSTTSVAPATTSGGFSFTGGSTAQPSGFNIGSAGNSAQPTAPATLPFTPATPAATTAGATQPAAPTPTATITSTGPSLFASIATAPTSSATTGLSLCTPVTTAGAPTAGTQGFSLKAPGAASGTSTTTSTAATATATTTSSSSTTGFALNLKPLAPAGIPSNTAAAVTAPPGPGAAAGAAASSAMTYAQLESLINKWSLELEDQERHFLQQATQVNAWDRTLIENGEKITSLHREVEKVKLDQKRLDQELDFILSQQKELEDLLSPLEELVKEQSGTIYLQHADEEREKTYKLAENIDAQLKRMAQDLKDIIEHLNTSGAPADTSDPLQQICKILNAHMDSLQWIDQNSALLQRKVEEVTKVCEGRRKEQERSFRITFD
row,Variant,effect of a mutation on the interaction
1,W337R,with no effect

# Variants of: B1
# Conditions: with tsg10_human TSGA10, Q9BZW7
# Sequence of tsg10_human TSGA10, Q9BZW7 (Q9BZW7 whole entry): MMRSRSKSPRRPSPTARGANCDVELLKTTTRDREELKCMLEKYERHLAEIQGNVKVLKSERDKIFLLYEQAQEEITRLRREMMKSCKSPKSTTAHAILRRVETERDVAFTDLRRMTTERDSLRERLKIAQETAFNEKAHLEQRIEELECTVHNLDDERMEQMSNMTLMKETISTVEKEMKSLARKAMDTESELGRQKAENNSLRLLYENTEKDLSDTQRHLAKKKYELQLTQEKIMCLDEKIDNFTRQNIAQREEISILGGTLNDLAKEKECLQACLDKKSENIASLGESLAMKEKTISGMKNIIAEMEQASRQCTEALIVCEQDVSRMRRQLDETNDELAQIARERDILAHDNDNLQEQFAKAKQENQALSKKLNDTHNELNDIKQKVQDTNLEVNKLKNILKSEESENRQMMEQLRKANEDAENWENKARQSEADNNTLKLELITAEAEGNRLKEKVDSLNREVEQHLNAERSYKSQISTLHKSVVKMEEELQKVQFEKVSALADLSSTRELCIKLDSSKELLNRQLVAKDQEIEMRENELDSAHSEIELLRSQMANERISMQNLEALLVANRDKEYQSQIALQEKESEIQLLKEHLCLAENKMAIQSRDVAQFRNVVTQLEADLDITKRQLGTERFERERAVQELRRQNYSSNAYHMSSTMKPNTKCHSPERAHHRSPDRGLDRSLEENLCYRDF
row,Variant,effect of a mutation on the interaction
1,W337R,disrupting interaction strength

# Variants of: B1
# Conditions: with anchr_human ZFYVE19, Q96K21
# Sequence of anchr_human ZFYVE19, Q96K21 (Q96K21 whole entry): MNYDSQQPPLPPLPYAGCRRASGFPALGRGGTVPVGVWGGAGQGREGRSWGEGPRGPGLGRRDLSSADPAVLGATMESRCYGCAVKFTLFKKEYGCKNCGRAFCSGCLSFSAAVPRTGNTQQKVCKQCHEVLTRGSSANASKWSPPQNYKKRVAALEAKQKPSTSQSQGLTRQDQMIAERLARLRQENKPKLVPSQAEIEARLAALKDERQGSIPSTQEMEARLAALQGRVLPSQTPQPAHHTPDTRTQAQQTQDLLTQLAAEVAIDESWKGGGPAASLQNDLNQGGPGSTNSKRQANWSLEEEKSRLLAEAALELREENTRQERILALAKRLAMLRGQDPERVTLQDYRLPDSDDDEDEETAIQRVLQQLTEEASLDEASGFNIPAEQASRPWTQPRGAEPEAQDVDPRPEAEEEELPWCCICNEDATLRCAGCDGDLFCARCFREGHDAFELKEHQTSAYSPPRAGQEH
row,Variant,effect of a mutation on the interaction
1,W337R,disrupting interaction strength

# Variants of: B1
# Conditions: with sat1_human SAT1, P21673
row,Variant,effect of a mutation on the interaction
1,W337R,disrupting interaction strength

# Variants of: B1
# Conditions: with ndk7_human NME7, Q9Y5B8
# Sequence of ndk7_human NME7, Q9Y5B8 (Q9Y5B8 whole entry): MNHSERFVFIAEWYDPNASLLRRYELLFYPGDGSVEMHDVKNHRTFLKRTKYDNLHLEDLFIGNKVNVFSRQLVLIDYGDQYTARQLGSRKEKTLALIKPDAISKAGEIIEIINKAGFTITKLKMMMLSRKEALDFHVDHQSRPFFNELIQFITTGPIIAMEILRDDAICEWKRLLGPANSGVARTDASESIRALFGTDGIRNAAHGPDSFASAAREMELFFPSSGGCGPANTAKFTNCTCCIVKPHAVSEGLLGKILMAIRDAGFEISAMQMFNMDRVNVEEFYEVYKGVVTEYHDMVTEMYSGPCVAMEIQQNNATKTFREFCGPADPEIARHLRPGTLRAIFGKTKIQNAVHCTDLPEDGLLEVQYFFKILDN
row,Variant,effect of a mutation on the interaction
1,W337R,with no effect

# Variants of: B1
# Conditions: with txlna_human TXLNA
row,Variant,effect of a mutation on the interaction
1,W337R,disrupting interaction strength
